The supplement of paper PMC9170038

Tested on: MS2 coat protein
Test: apparent KD of MS2 coat protein; higher = weaker reporter binding
Conditions: Eterna round: R107
In short: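 Binding of SNAP-549-labelled MS2 coat protein was measured on designed RNA switches transcribed on-chip from Illumina sequencing clusters. The protein rose in twofold steps from 0.7 or 1.5 nM to 3 µM, with 0.8–1.5 h per step early on and 10–20 min per step later, in 100 mM Tris-HCl pH 7.5, 80 mM KCl, 4 mM MgCl2, without or with constant ligand. Each design's apparent KD is the median of fits to its normalised cluster binding curves.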

[1] = input ligand: theophylline 20 uM
[2] = input ligand: tryptophan 2.4 mM
[3] = input ligand: theophylline 2 mM

Sequence | apparent KD of MS2 coat protein (input ligand: arginine 13.2 mM) | apparent KD of MS2 coat protein [1] | apparent KD of MS2 coat protein [2] | apparent KD of MS2 coat protein (input ligand: none) | apparent KD of MS2 coat protein [3]
CCAAGCAUAAUAGAUACCAGUCGUAUACCUCCAACAUGAGGAUCACCCAUGUGCUCAGUUGACCCUUGGCAGCUAUGCCUAUAGA [theeternabot_sameState_MS2_Theo_B_1] | 37.4 nM | 53.3 nM | 38.2 nM | – | –
CCACAUGAGGAUCACCCAUGUAUAGUUGAAGGAGCGAUCAUUAGGUCAGGUAGGUCGCAGCACAUGAGGAUCACCCAUGUCGAAA [DOUBLE!!! :-D #3] | 41.2 nM | 60.9 nM | 58.4 nM | 64.8 nM | 72.8 nM
CCACUUUCUUUUAUCUUUCUUUCUUUGUUACGAGGACCGGUACGGCCGCCACUCGUGGUGUGUGGUACAUGAGGAUCACCCAUGU | 23.1 nM | 34.9 nM | – | – | 32.9 nM
CCAUAAGUAACUGAUACCAGUGUACUGACAUGAGGAUCACCCAUGUUGGGUUUUGUUGUACACCCUUGGCAGCAGAAUCUUGUGG [AstrosExyTheB#16] | 43.9 nM | 70.1 nM | 54.3 nM | – | –
CCCAAAUAGAUCAAAGGAAUUAUACUCGAAGGAGCGUCAUAGUAGGCAGGUAGGUCGCGAGACAUGAGGAUCACCCAUGUAGAGA [sssmullin] | 33.3 nM | 45.6 nM | 34.9 nM | 51.9 nM | 57.2 nM
CCCAAAUAGAUCUUUGGAAUUUUACUCGAAGGAGCGUCAUAGUAGGCAGGUAGGUCGCGAGACAUGAGGAUCACCCAUGUAGAGA [kinmullin] | 18.7 nM | 35.5 nM | 32.4 nM | 53.7 nM | 45.8 nM
CCCUCGUCAACGGCCGCCACUGUGAUUCACUAAGAUAAUAUUGCACAUGAGGAUCACCCAUGUCUCAGGACCGGGUUGGUGUGUC [theeternabot_sameState_MS2_Trp_B_38] | 82 nM | 128 nM | – | – | 131 nM
CCGAACAUGAGGAUCACCCAUGUAUCCGAGCGAGGACCGGUACGGCCGCCACUCGAACUGCACCGGAAAAGGGAAACACCGAUCC [theeternabot_sameState_MS2_Trp_A_9] | 33.4 nM | 95.7 nM | – | – | 69.3 nM
CCGACGAUGACUAUGGGUCAGGAGUGCGCACGAGGACCGGUACGGCCGCCACUCGAGGAGUGGGACAUGAGGAUCACCCAUGUGG [X-TryptA-MS2@65] | 31.5 nM | 73.7 nM | 33.6 nM | 30 nM | 52.8 nM
CCGGAGACCGUGUCAGCGGAAGCAAGAACACGAGGACCGGUACGGCCGCCACUCGAAAGAAGACAUGAGGAUCACCCAUGUCCAU [theeternabot_exclusion_MS2_Trp_A_43] | 10.5 nM | 15.1 nM | – | – | 13.8 nM
CCGUCACAUGAGGAUCACCCAUGUGGUGAUACCAGCAGUCGACCCUGCCCUUGGCAGCACAUUAUCAUAAAAGCAAUCAGCAACG [theeternabot_sameState_MS2_Theo_A_41] | 57 nM | 269 nM | 135 nM | – | –
CCGUUUUAUGGCGACAUAGGGCGGACUGAAGGAGCGGGAUAAAACCCAGGUAGGUCGCAGAGAUCCACAUGAGGAUCACCCAUGU [!0.X] | 35.9 nM | 54.5 nM | 35.9 nM | 38 nM | 32.8 nM
CCUAUGCAGUCGGCCGCCACUGAACAUGAGGAUCACCCAUGUAUAUAAAGAUCCUGAUAUAAUAACAGGACCGGGACUGUAUAGG [Ex Tryptophan B 10] | 39.2 nM | 73.4 nM | – | – | 58.1 nM
CCUCAUGUGACGGCCGCCACUGAAGUGAUCGAAACAUGAGGAUCACCCAUGUUACGAUCAGAGAACAGGACCGGGUCAACAUGGG [Try B SS s1] | 7.46 nM | 13.6 nM | 9.85 nM | 9.32 nM | 13.1 nM
CCUGCGUUUCUUUUCUUUCGCAGGAAUGAUACCAGUAGGGAAACCUACCCUUGGCAGCAUGGGACAUGAGGAUCACCCAUGUUAU [SSThA NP+V+V2 #3] | 167 nM | 243 nM | 300 nM | – | –
CCUGCUACGGGAAACCGUAGCAGGAAUGAUACCAGUAGGAAAGACUACCCUUGGCAGCAUGGGUAACAUGAGGAUCACCCAUGUU [SSThA NP+V+V2 #6 Same Structure] | 70.9 nM | 124 nM | 66 nM | 132 nM | 87.9 nM
CCUGGAUCAGAUCUUAAAGGCGGUUCUGAUACCAGUCUUUUCCGAGACCCUUGGCAGCAGAACACAUGAGGAUCACCCAUGUAAA [theeternabot_exclusion_MS2_Theo_A_11] | 29.1 nM | 59 nM | 59.7 nM | – | –

Sequence | apparent KD of MS2 coat protein (input ligand: arginine 13.2 mM) | apparent KD of MS2 coat protein [1] | apparent KD of MS2 coat protein [2] | apparent KD of MS2 coat protein (input ligand: none) | apparent KD of MS2 coat protein [3]
CCUUAAUAUGGAAGGAGCGCGCUAACAUGAGGAUCACCCAUGUAAAGGGUUUUAGGCUUAGCGCAGGUAGGUCGCCGUAAGAACC [#09 Exclusion - Arginine B] | 288 nM | 266 nM | 252 nM | 249 nM | 327 nM
CGAACAAAACUAAAUAAACAACUGGGUGAUACCAGUACAUGUGCGUACCCUUGGCAGCAUCCGGCCACAUGAGGAUCACCCAUGU [Ridiansoer] | 35.4 nM | 98.8 nM | 40.9 nM | – | –
CGAAUACUGAGUGAUACCAGUGAAAGAUAACUGUAUACACAUGAGGAUCACCCAUGUACACACCCUUGGCAGCACACUAGAUCGA [Same State Theophylline B GF 2] | 25.8 nM | 40 nM | 29.9 nM | – | –
CGAUAUAUAGCGGCCGCCACUUACUCAUGAGGUAACAACAUGAGGAUCACCCAUGUUUGAGGAUCAAGGACCGGGCUAUGUAUCG [AstrosSSTryB#14] | 24.9 nM | 32 nM | – | – | 29.4 nM
CGCACAUGAGGAUCACCCAUGUGAGGGCAUCGAGGACCGGUACGGCCGCCACUCGCAGGACAUGAGGAUCACCCAUGUGCCGCCG [SSTA DOUBLE!!! :-D #5] | 22.1 nM | 52.9 nM | 24.4 nM | 34.3 nM | 47.2 nM
CGCACAUGAGGAUCACCCAUGUGAGGGCGACGAGGACCGGUACGGCCGCCACUCGCAAAACAUGAGGAUCACCCAUGUGCCGCCG [SSTA DOUBLE!!! :-D #3] | 19.7 nM | 42.7 nM | 20.3 nM | 19.3 nM | 29.1 nM
CGCACAUGAGGAUCACCCAUGUGAGGGUACCGAGGACCGGUACGGCCGCCACUCGCAGGACAUGAGGAUCACCCAUGUGCCGCCG [SSTA DOUBLE!!! :-D #6] | 24.3 nM | 41.9 nM | 31 nM | 38.3 nM | 44.5 nM
CGCUACGUAACUGAUACCAGUGUACUGACAUGAGGAUCACCCAUGUUGGGUUUUGUUGUACACCCUUGGCAGCAGAAUCGUAGCG [AstrosExyTheB#13] | 58.7 nM | 79.2 nM | 61.3 nM | – | –
CGGAGUAUGACGGCCGCCACUUGCCGGGCGCAGCUGGCUGCUUGACAUGAGGAUCACCCAUGUCCAAGGACCGGGUCAUUCCUCG [theeternabot_sameState_MS2_Trp_B_37] | 59.4 nM | 145 nM | – | – | 189 nM
CGGCCCUCACAUGAGGAUCACCCAUGUGAUACCAGCCUGGAAACAGGCCCUUGGCAGCACAGGUCAUCAAAAGAUGACCAAGCCG [TheoAX 21 #SwitchBubble] | 15.1 nM | 20.5 nM | 11.8 nM | – | –
CGGGUUCGGGCGGCCGCCACUAUGAUUAGGUGUGGGUGUGUUGUGUUACAUGAGGAUCACCCAUGUAGGACCGGGUUUGGGCUUG [Sturgeon] | 33.4 nM | 84.5 nM | 57.4 nM | 52.6 nM | 28.3 nM
CGGUAGGUAGGUCGAUAUCUACCCGUAGAAGGAGCGUAAGAAAAUACAGGUAGGUCGCUACGGUACAUGAGCAUCAGCCAUGUCC [SSArg A #13 Alt-Ms2] | 10.5 nM | 15.2 nM | 13.1 nM | 11.7 nM | 11.7 nM
CGGUAUGGGACGGCCGCCACUAUUAUGUAACAAAAUAAACAUGAGGAUCACCCAUGUACAUGGGAUAGGACCGGGUCCUAUAGCG [#23 Same State - Tryptophan B] | 19.8 nM | 70.9 nM | 17.7 nM | 55.7 nM | 133 nM
CGUAUUGGAAACAGUACGAGUGAUCCGGUCCGAGGACCGGUACGGCCGCCACUCGAAAUAAAUAAACAUGAGGAUCACCCAUGUA [Ex Tryptophan A 9] | 14.1 nM | 18.2 nM | – | – | 21.9 nM
CUAAAUAUAACGGCCGCCACUUACUCAUGAGGUAACAACAUGAGGAUCACCCAUGUUUGAGGAUCAAGGACCGGGUUAUAUUUAG [AstrosSSTry#22] | 26.5 nM | 38.1 nM | – | – | 30.2 nM
CUAAGAGUUACGGCCGCCACUAGUUGGGAUCCGCCCGUAAAAUCACAUGAGGAUCACCCAUGUCCUAGGACCGGGUAAUCGCAUU [theeternabot_sameState_MS2_Trp_B_31] | 110 nM | 616 nM | – | – | 499 nM
CUACAUUUGUAGAAACCGGUCAACAAUAAUCGAGGACCGGUACGGCCGCCACUCGAUGUGAAAUCACAUGAGGAUCACCCAUGUA [Tryptophan A 18] | 18.9 nM | 23.8 nM | – | – | 19.8 nM
